Reference: paper PMC2831474 (Archives of biochemistry and biophysics, 2010)

Biological target: preformed F-actin (chicken pectoral muscle skeletal actin polymerized with 0.1 M KCl) (chicken, UniProt P68139 1-377)
Assay: co-sedimentation

stoichiometry N: 0.25 ± 0.03 tropomyosin/actin molar ratio
B1: N-acetylated striated muscle long α-tropomyosin (stTM) (natural protein)
chain: not shown
modifications: N-acetylated
